Among the data in patent US20240084039A1 are % positives of total tested serum samples, No of positive serum samples above 31.56% CCP (serum samples) and No of positive serum samples above 30% CCP (serum samples) values, retold here.

B1: NM21-1480 (PRO1480) (protein)
chain: DIQMTQSPASLSASVGDRVTITCQASQSIGTYLAWYQQKPGKPPKLLIYRAFILASGVPSRFSGSGSGTDFTLTISSLQPEDFATYYCQSNFYSDSTTIGPNAFGTGTKVTVLGGGGGSEVQLVESGGGLVQPGGSLRLSCAASGFSFSANYYPCWVRQAPGKGLEWIGCIYGGSSDITYDANWTKGRFTISRDNSKNTVYLQMNSLRAEDTAVYYCARSAWYSGWGGDLWGQGTLVTVSSGGGGSGGGGSGGGGSGGGGSIQMTQSPSSLSASVGDRVTITCQASQSISNRLAWYQQKPGKAPKLLIYSASTLASGVPSRFSGSGSGTDFTLTISSLQPEDFATYYCQSTYYGNDGNAFGTGTKVTVLGGGGGSEVQLVESGGGLVQPGGSLRLSCAASGFSFNSDYWIYWVRQAPGKGLEWIASIYGGSSGNTQYASWAQGRFTISRDNSKNTVYLQMNSLRAEDTAVYFCARGYVDYGGATDLWGQGTLVTVSSGGGGSGGGGSIQMTQSPSSLSASVGDRVTITCQSSESVYSNNQLSWYQQKPGQPPKLLIYDASDLASGVPSRFSGSGSGTDFTLTISSLQPEDFATYYCAGGFSSSSDTAFGGGTKLTVLGGGGGSGGGGSGGGGSGGGGSEVQLVESGGGLVQPGGSLRLSCAASGFSLSSNAMGWVRQAPGKGLEYIGIISVGGFTYYASWAKGRFTISRDNSKNTVYLQMNSLRAEDTATYFCARDRHGGDSSGAFYLWGQGTLVTVSS
B2: PRO2759 (protein)
chain: DIQMTQSPASLSASVGDRVTITCQASQSIGTYLAWYQQKPGKPPKLLIYRAFILASGVPSRFSGSGSGTDFTLTISSLQPEDFATYYCQSNFYSDSTTIGPNAFGTGTKVTVLGGGGGSEVQLVESGGGLVQPGGSLRLSCAASGFSFSANYYPCWVRQAPGKGLEWIGCIYGGSSDITYDAQWTKGRFTISRDNSKNTVYLQMNSLRAEDTAVYYCARSAWYSGWGGDLWGQGTLVTVSSGGGGSGGGGSGGGGSGGGGSIQMTQSPSSLSASVGDRVTITCQASQSISNRLAWYQQKPGKAPKLLIYSASTLASGVPSRFSGSGSGTDFTLTISSLQPEDFATYYCQSTYYGNDGNAFGTGTKVTVLGGGGGSEVQLVESGGGRVQPGGSLRLSCAASGFSFNSDYWIYWVRQAPGKGLEWIASIYGGSSGNTQYASWAQGRFTISRDNSKNTVYLQMNSLRAEDTATYFCARGYVDYGGATDLWGQGTQVTVSSGGGGSGGGGSIQMTQSPSSLSASVGDRVTITCQSSESVYSNNQLSWYQQKPGQPPKLLIYDASDLASGVPSRFSGSGSGTDFTLTISSLQPEDFATYYCAGGFSSSSDTAFGGGTKLTVLGGGGGSGGGGSGGGGSGGGGSEVQLVESGGGLVQPGGSLRLSCAASGFSLSSNAMGWVRQAPGKGLEYIGIISVGGFTYYASWAKGRFTISRDNSKNTVYLQMNSLRAEDTATYFCARDRHGGDSSGAFYLWGQGTLVTVSS
B3: PRO2758 (protein)
chain: DIQMTQSPASLSASVGDRVTITCQASQSIGTYLAWYQQKPGKPPKLLIYRAFILASGVPSRFSGSGSGTDFTLTISSLQPEDFATYYCQSNFYSDSTTIGPNAFGTGTKVTVLGGGGGSEVQLVESGGGRVQPGGSLRLSCAASGFSFSANYYPCWVRQAPGKGLEWIGCIYGGSSDITYDAQWTKGRFTISRDNSKNTVYLQMNSLRAEDTATYYCARSAWYSGWGGDLWGQGTQVTVSSGGGGSGGGGSGGGGSGGGGSIQMTQSPSSLSASVGDRVTITCQASQSISNRLAWYQQKPGKAPKLLIYSASTLASGVPSRFSGSGSGTDFTLTISSLQPEDFATYYCQSTYYGNDGNAFGTGTKVTVLGGGGGSEVQLVESGGGRVQPGGSLRLSCAASGFSFNSDYWIYWVRQAPGKGLEWIASIYGGSSGNTQYASWAQGRFTISRDNSKNTVYLQMNSLRAEDTATYFCARGYVDYGGATDLWGQGTQVTVSSGGGGSGGGGSIQMTQSPSSLSASVGDRVTITCQSSESVYSNNQLSWYQQKPGQPPKLLIYDASDLASGVPSRFSGSGSGTDFTLTISSLQPEDFATYYCAGGFSSSSDTAFGGGTKLTVLGGGGGSGGGGSGGGGSGGGGSEVQLVESGGGRVQPGGSLRLSCAASGFSLSSNAMGWVRQAPGKGLEYIGIISVGGFTYYASWAKGRFTISRDNSKNTVYLQMNSLRAEDTATYFCARDRHGGDSSGAFYLWGQGTQVTVSS
B4: PRO2668 (protein)
chain: AFELTQSPSSLSASVGDRVTITCQASESINSRLAWYQQKPGQPPKLLIYDASDLTSGVPSRFSGSGSGTDFTLTISSLQPEDFATYYCQGYGGSSTTTFGCGTKLTVLGGGGGSEVQLVESGGGRVQPGGSLRLSCAASGFSLSSYDMSWVRQAPGKGLAWIGASYASGPTYYASWAKGRFTISRDNSKNTVYLQMNSLRAEDTATYFCARGGWTGTSHSNIWGQGTQVTVSSGGGGSGGGGSGGGGSGGGGSDIQMTQSPSSLSASVGDRVTITCQSSQSVFSNNYLAWFQQKPGQSPKRLIYSASTLASGVPSRFSGSGSGTDFTLTISSLQPEDFATYYCLGSYACSSADCYVFGTGTKVTVLGGGGGSEVQLVESGGGRVQPGGSLRLSCAASGFSLSSYAMNWVRQAPGKCLEWIGHINAGDIAYYATWAKGRFTISRDNSKNTVYLQMNSLRAEDTATYFCARGAGGFSTGPFKLWGQGTQVTVSSGGGGSGGGGSAQQLTQSPSSLSASVGDRVTITCQASQNVWNNNYLSWFQQKPGKPPKLLIVTASTLASGVSSRFSGSGSGTDFTLTISSLQPEDFATYYCAGGFSGEIRAFGCGTKVTVLGGGGGSGGGGSGGGGSGGGGSQSQLVESGGGRVQPGGSLRLSCAVSGLSLSRNAMSWVRQAPGKCLEWIGIILTSGSTYYASWAKGRFTISKDNSKNTVYLQMNSLRAEDTATYFCVRGIASSSLKSFWGQGTQVTVSS
B5: PRO2510 (protein)
chain: AFELTQSPSSLSASVGDRVTITCQASESINSRLAWYQQKPGQPPKLLIYDASDLTSGVPSRFSGSGSGTDFTLTISSLQPEDFATYYCQGYGGSSTTTFGCGTKLTVLGGGGGSEVQLVESGGGLVQPGGSLRLSCAASGFSLSSYDMSWVRQAPGKGLAWIGASYASGPTYYASWAKGRFTISRDNSKNTVYLQMNSLRAEDTATYFCARGGWTGTSHSNIWGQGTLVTVSSGGGGSGGGGSGGGGSGGGGSDIQMTQSPSSLSASVGDRVTITCQSSQSVFSNNYLAWFQQKPGQSPKRLIYSASTLASGVPSRFSGSGSGTDFTLTISSLQPEDFATYYCLGSYACSSADCYVFGTGTKVTVLGGGGGSEVQLVESGGGLVQPGGSLRLSCAASGFSLSSYAMNWVRQAPGKCLEWIGHINAGDIAYYATWAKGRFTISRDNSKNTVYLQMNSLRAEDTAVYFCARGAGGFSTGPFKLWGQGTLVTVSSGGGGSGGGGSAQQLTQSPSSLSASVGDRVTITCQASQNVWNNNYLSWFQQKPGKPPKLLIVTASTLASGVSSRFSGSGSGTDFTLTISSLQPEDFATYYCAGGFSGEIRAFGCGTKVTVLGGGGGSGGGGSGGGGSGGGGSQSQLVESGGGLVQPGGSLRLSCAVSGLSLSRNAMSWVRQAPGKCLEWIGIILTSGSTYYASWAKGRFTISKDNSKNTVYLQMNSLRAEDTAVYFCVRGIASSSLKSFWGQGTLVTVSS
B6: PRO2669 (protein)
chain 1: DVQMTQSPSSLSASVGDRVTITCRASENIYSGLAWYQQKPGKPPKLLIYRASTLASGVSSRFSGSGSGTDFTLTISSLQPEDFATYYCQGGYYSSSSTYIAFGTGTKVTVLGGGGGSGGGGSGGGGSGGGGSQSQVVESGGGRVQPGGSLRLSCAVSGFDLSSYAVSWVRQAPGKGLEWIGIIYPRANTYYASWAKGRFTISKDNSKNTVYLQMNSLRAEDTATYFCARDRYDSGAYLYTTYFNLWGQGTQVTVSSGGGGSGGGGSAFELTQSPSSLSASVGDRVTITCQASESINSRLAWYQQKPGQPPKLLIYDASDLTSGVPSRFSGSGSGTDFTLTISSLQPEDFATYYCQGYGGSSTTTFGCGTKLTVLGGGSGGSDIQMTQSPSSLSASVGDRVTITCQSSQSVFSNNYLAWFQQKPGQSPKRLIYSASTLASGVPSRFSGSGSGTDFTLTISSLQPEDFATYYCLGSYACSSADCYVFGTGTKVTVLG
chain 2: DVQMTQSPSSLSASVGDRVTITCRASENIYSGLAWYQQKPGKPPKLLIYRASTLASGVSSRFSGSGSGTDFTLTISSLQPEDFATYYCQGGYYSSSSTYIAFGTGTKVTVLGGGGGSGGGGSGGGGSGGGGSQSQVVESGGGRVQPGGSLRLSCAVSGFDLSSYAVSWVRQAPGKGLEWIGIIYPRANTYYASWAKGRFTISKDNSKNTVYLQMNSLRAEDTATYFCARDRYDSGAYLYTTYFNLWGQGTQVTVSSGGGGSGGGGSEVQLVESGGGRVQPGGSLRLSCAASGFSLSSYDMSWVRQAPGKGLAWIGASYASGPTYYASWAKGRFTISRDNSKNTVYLQMNSLRAEDTATYFCARGGWTGTSHSNIWGQGTQVTVSSGGGSGGGSGGGSGEVQLVESGGGRVQPGGSLRLSCAASGFSLSSYAMNWVRQAPGKCLEWIGHINAGDIAYYATWAKGRFTISRDNSKNTVYLQMNSLRAEDTATYFCARGAGGFSTGPFKLWGQGTQVTVSS
B7: PRO2660 (protein)
chain 1: DIQMTQSPSSLSASVGDRVTITCQASESIYSSLAWYQQKPGKAPKLLIYLASTLASGVPSRFSGSGSGTDFTLTISSLQPEDFATYYCQSTDYTTSTHRNSFGTGTKVTVLGGGGGSGGGGSGGGGSGGGGSEVQLVESGGGLVQPGGSLRLSCAASGFSFSTTYYMCWVRQAPGKGLEWIGCTNTASSVRTYYATWAKGRFTISRDNSKNTVYLQMNSLRAEDTAVYYCARDMGFADYALNLWGQGTLVTVSSGGGGSGGGGSEVQLVESGGGLVQPGGSLRLSCAASGFSLSSYDMSWVRQAPGKGLAWIGASYASGPTYYASWAKGRFTISRDNSKNTVYLQMNSLRAEDTATYFCARGGWTGTSHSNIWGQGTLVTVSSGGGSGGGSGGGSGEVQLVESGGGLVQPGGSLRLSCAASGFSLSSYAMNWVRQAPGKCLEWIGHINAGDIAYYATWAKGRFTISRDNSKNTVYLQMNSLRAEDTAVYFCARGAGGFSTGPFKLWGQGTLVTVSS
chain 2: DIQMTQSPSSLSASVGDRVTITCQASESIYSSLAWYQQKPGKAPKLLIYLASTLASGVPSRFSGSGSGTDFTLTISSLQPEDFATYYCQSTDYTTSTHRNSFGTGTKVTVLGGGGGSGGGGSGGGGSGGGGSEVQLVESGGGLVQPGGSLRLSCAASGFSFSTTYYMCWVRQAPGKGLEWIGCTNTASSVRTYYATWAKGRFTISRDNSKNTVYLQMNSLRAEDTAVYYCARDMGFADYALNLWGQGTLVTVSSGGGGSGGGGSAFELTQSPSSLSASVGDRVTITCQASESINSRLAWYQQKPGQPPKLLIYDASDLTSGVPSRFSGSGSGTDFTLTISSLQPEDFATYYCQGYGGSSTTTFGCGTKLTVLGGGSGGSDIQMTQSPSSLSASVGDRVTITCQSSQSVFSNNYLAWFQQKPGQSPKRLIYSASTLASGVPSRFSGSGSGTDFTLTISSLQPEDFATYYCLGSYACSSADCYVFGTGTKVTVLG

One experiment has as its target pre-existing anti-drug antibodies (ADA) present in human sera. Kind of experiment: ELISA pre-existing ADA binding assay, confirmatory setup, test molecule coated, 40 human sera. A general note: In an ELISA, binding on a coated surface is turned into a signal by an enzyme label.
Regarding B1, the % positives of total tested serum samples stood at 22.5% and the No of positive serum samples above 31.56% CCP (serum samples) came to 9.
For B2, in that order: 15% and 6.
The like results for B3 were, in that order, 5% and 2.

The next experiment has the same target. Kind of experiment: ELISA pre-existing ADA binding assay, confirmatory setup, test molecule coated, 20 human sera.
Molecule B4 returned a % positives of total tested serum samples of 0% and a No of positive serum samples above 30% CCP (serum samples) of 0.
The like results for B5 were, in that order, 15% and 3.
The like results for B6 were, in that order, 5% and 1.
As for B7, the % positives of total tested serum samples was 30% and the No of positive serum samples above 30% CCP (serum samples) turned out to be 6.
